Experimental data from publication PMC3032679 (Journal of Translational Medicine, 2011).
Ends that are not written are not given here.

B1: human recombinant PP5 (natural protein, UniProt P53041 1-499, looked up)
chain: MAMAEGERTECAEPPRDEPPADGALKRAEELKTQANDYFKAKDYENAIKFYSQAIELNPSNAIYYGNRSLAYLRTECYGYALGDATRAIELDKKYIKGYYRRAASNMALGKFRAALRDYETVVKVKPHDKDAKMKYQECNKIVKQKAFERAIAGDEHKRSVVDSLDIESMTIEDEYSGPKLEDGKVTISFMKELMQWYKDQKKLHRKCAYQILVQVKEVLSKLSTLVETTLKETEKITVCGDTHGQFYDLLNIFELNGLPSETNPYIFNGDFVDRGSFSVEVILTLFGFKLLYPDHFHLLRGNHETDNMNQIYGFEGEVKAKYTAQMYELFSEVFEWLPLAQCINGKVLIMHGGLFSEDGVTLDDIRKIERNRQPPDSGPMCDLLWSDPQPQNGRSISKRGVSCQFGPDVTKAFLEENNLDYIIRSHEVKAEGYEVAHGGRCVTVFSAPNYCDQMGNKASYIHLQGSDLRPQFHQFTAVPHPNVKPMAYANTLLQLGMM
notes: PP5 (protein phosphatase 5), human, recombinant; Abnova recombinant proteins often carry a GST tag (surmise); source: bought: Abnova
B2: Biotin-conjugated TPR peptide (peptide)
peptide: KAYARIGNSYFK
modifications: also: biotin-conjugated, position not given here
notes: Immobilised on a streptavidin sensor chip by its biotin; also called biotin-TPR; immobilized TPR peptide; source: synthetic peptide
B3: TPR peptide (KAYARIGNSYFK) (peptide)
peptide: KAYARIGNSYFK
notes: also called designed TPR peptide; source: synthetic peptide

How the values were obtained:
human recombinant Hsp90α [1] = target: T1, human recombinant Hsp90α (human, UniProt P07900 1-732); experiment: SPR; competition; Hsp90 or Hsp70 (1 μM) preincubated with TPR peptide (14, 140 or 700 μM) passed over Hop, FKBP5 or PP5 immobilised on CM5 chip; signal without peptide = 100% binding; 25°C, HBS-EP buffer pH 7.4; conditions: both partners purified
T1 construct: Heat shock protein 90 alpha (Hsp90α), human, recombinant; also called heat shock protein 90; source: bought: Stressgen Bioreagents

human recombinant Hsp90α [2] = target: T1, human recombinant Hsp90α; experiment: SPR; Biacore 3000; biotin-TPR peptide immobilised on streptavidin (SA) chip; Hsp90 or Hsp70 (0.3, 1 or 2 μM) as analyte, 30 μl/min, 25°C, HBS-EP buffer pH 7.4; conditions: both partners purified

| Binder | binding result (human recombinant Hsp90α [1]) | Kd (human recombinant Hsp90α [2]) |
| --- | --- | --- |
| B1 | binds | – |
| B2 | – | 1420 nM |
| B3 | binds | – |
